In US20090148461A1 (Kyowa Kirin, published 2009):

Molecular target: T1, full length human FGF23 protein (amino acid 25 to amino acid 251 of SEQ ID NO: 4) (human, UniProt Q9GZV9 25-251)
T1 construct: also called full length FGF23; human full length FGF23 protein
T1 sequence: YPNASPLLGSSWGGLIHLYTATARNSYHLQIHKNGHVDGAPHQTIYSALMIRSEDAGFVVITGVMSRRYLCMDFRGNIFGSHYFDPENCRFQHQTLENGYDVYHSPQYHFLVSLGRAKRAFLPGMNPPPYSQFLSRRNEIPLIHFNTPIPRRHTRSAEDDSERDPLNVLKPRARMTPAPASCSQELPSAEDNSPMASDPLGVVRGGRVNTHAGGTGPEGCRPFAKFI
Assay: ELISA screening of hybridoma supernatants

binding result: binds
B1: C10 antibody (anti-FGF23 human monoclonal antibody produced by hybridoma C10, FERM BP-10772) (antibody, human IgG1, V domains shown)
VH: QVQLVQSGAEVKKPGASVKVSCKASGYTFTNHYMHWVRQAPGQGLEWMGIINPISGSTSNAQKFQGRVTMTRDTSTSTVYMELSSLRSEDTAVYYCARDIVDAFDFWGQGTMVTVSS
VL: AIQLTQSPSSLSASVGDRVTITCRASQGISSALVWYQQKPGKAPKLLIYDASSLESGVPSRFSGSGSGTDFTLTISSLQPEDFATYYCQQFNDYFTFGPGTKVDIK
notes: also called recombinant C10 antibody
